Assay [1] concerns the target HIV-1 NL4.3 Vif H27A, recombinant (E. coli) (HIV-1 NL4.3). The assay is described as follows: pull-down.
For assay [2], the target named is HIV-1 NL4.3 Vif H28A, recombinant (E. coli) (HIV-1 NL4.3). The assay is described as follows: pull-down.
Assay [3] deals with HIV-1 NL4.3 Vif M29A, recombinant (E. coli) (HIV-1 NL4.3). The assay is described as follows: pull-down.
For assay [4], the target named is HIV-1 NL4.3 Vif Y30A, recombinant (E. coli) (HIV-1 NL4.3). The assay is described as follows: pull-down.
The target of assay [5] is Vif H108A-CBF-β-Elo B/C complex (HIV-1 NL4.3 | human | not stated) (UniProt Q13951). The assay is described as follows: ITC. On the technique in general: Isothermal titration calorimetry measures the heat released or taken up as one component is titrated into another.
Assay [6] deals with Vif H27A-CBF-β-Elo B/C complex (HIV-1 NL4.3 | human | not stated) (UniProt Q13951). The assay is described as follows: ITC.
The target of assay [7] is Vif V25A-CBF-β-Elo B/C complex (HIV-1 NL4.3 | human | not stated) (UniProt Q13951). Briefly: ITC.
In assay [8] the target is wild-type Vif-CBF-β-Elo B/C complex (HIV-1 NL4.3 | human | not stated) (UniProt Q13951). Briefly: ITC.

Take “N-terminal Cul5, co-expressed in E. coli (Cul5/Vif pET-Duet) (domain or fragment)”: the percent reduction of Cul5 binding against wild-type Vif in assay [1] is above 60%; in assay [2] it was 20%; in assay [3], above 60%; in assay [4] it was above 60%.

For the substance “Cul5-NTD (residues 1 to 393, V341R, L345D) (from UniProt Q93034 1-393) (domain or fragment)”, the Kd in assay [5] amounted to 36 nM; in assay [6], 660 nM; in assay [7], 511 nM; in assay [8], 5.9 nM. In addition, the dH in assay [5] was -4 kcal/mol; in assay [8] it was -9 kcal/mol.

As a reminder, the Kd is the equilibrium constant for the complex coming apart. High values mean lower affinity, low ones higher affinity.

The values above are taken from PMC3937519.
